This series is described as follows: yeast display, Sf9 membrane polyspecificity reagent, FACS + sequencing; frameworks hold sequencing errors. The gist of the method: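 Genes from sorted yeast were amplified by colony PCR, read by MiSeq 2 × 250 sequencing and filtered on CDR length. These cells carried a synthetic nanobody library in Saccharomyces cerevisiae BJ5465 and were sorted by FACS into low and high (top ~1%) gates on anti-HA and streptavidin fluorescence. Polyreactivity is labelled according to the gate of origin.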
With “QVQLVESGGGLVQAGGSLRLSCAASGRTFIRNVMGWYRQAPGKERELVAGITGGGNTYYADSVKGRFTISRDNAKNTVYLQMNSLKPEDTAVYECAVRYPSYGLSYVRYGYWGQVTQVTVSS”, the “polyreactivity (PSR sort gate)” value is “high polyreactivity”.

For the sequence “QVQLVESGGGLVQAGGSLRLSCAASGRTFISNAMGWYRQAPGKERELVAAITSTGGRTYYADSVKGRFTISRDNAKNTVYLQMNSLKPEDTAVYYCNTGKRRFYSMDYWGQGTQVTVSS”, the “polyreactivity (PSR sort gate)” value is recorded as “high polyreactivity”. In the case of “QVQLVESGGGLVQAGGSLRLSCAASGRTFISNAMGWYRQAPGKERELVATISRRGGITYYADSVKGRFTISRDNSKNTVYLQMNSLKPEDTAVFYCNARNYPQGIYYWGQGTQVTLSS” it was “high polyreactivity”. The value for “QVQLVESGGGLVQAGGSLRLSCAASGRTFISYAMGWYRQAPGKERELVAAIDFSDGSTYYADSVKGRFTISRDNAKNTVYLQMNSLKPEDTAVYYCAADDPGLGYWSLTWYDYWGQGTQVTVSS” was “high polyreactivity”; that for “QVQLVESGGGLVQAGGSLRLSCAASGRTFIVNTMRWYRQAPGKDRELVAAITARGGRTYYADSEKGRFTISRDNAKNTVYLQLNSLKPEDTAVYYCNARTPPREAERYYWGQGTQVTVSS” was “low polyreactivity”; that for “QVQLVESGGGLVQAGGSLRLSCAASGRTFIWNAMGWYRQAPGKERELVADISIRGGSTNYADSVKGRFTISRDNAKNTVYLQMNSLKPEDTAVYYCAADYYDSGNDYWGQGTQVTVSS” was “low polyreactivity”. As to “QVQLVESGGGLVQAGGSLRLSCAASGRTFIYNTMGWYRQAPGKERELFAAISSGGSTNYADSVKGRFTISRDNAKNTVYLQMNSLKPEDTAVYYCATQGLSAPFDGFVNSRFDHRGQGTQVTVSS”, the “polyreactivity (PSR sort gate)” value is given as “low polyreactivity”. As to “QVQLVESGGGLVQAGGSLRLSCAASGRTFIYNVMGWYRQAPGKERELVAAISQRGGSTYYADSVKGRFTISRDNAKNTVYLQMNSLKPEDTAVYYCAAESYYKKWSDYWGQGTQVTVSS”, the “polyreactivity (PSR sort gate)” value was “high polyreactivity”. For the sequence “QVQLVESGGGLVQAGGSLRLSCAASGRTFIYYAMGWYRQAPGKERELVATIRGSSTRTYYADSVKGRFTISRDNAKNTVYLQMNSLKPEDTAVYYCAARGTSRKYYYWGQGTQVTVSS”, the “polyreactivity (PSR sort gate)” value is “high polyreactivity”. As to “QVQLVESGGGLVQAGGSLRLSCAASGRTFIYYDKGWYRQAPGKERDLVAAIRQRGDNTYYADSVKGSFTISRDNAKNTVYLKMKSLKPDDTAVYFCAAVNYLSYRYGYSWSYPGGGYWGQGTQVTVSS”, the “polyreactivity (PSR sort gate)” value was “high polyreactivity”.

For the sequence “QVQLVESGGGLVQAGGSLRLSCAASGRTFKANAMGWYRQAPGKERELVAAISYSGGNTYYADSVKGRFTISRDNAKNTVYLQMNSLKPEDTAVYYCAARRGYGRENQFYSWGQGTQVTVSS”, the “polyreactivity (PSR sort gate)” value is reported as “high polyreactivity”. The value for “QVQLVESGGGLVQAGGSLRLSCAASGRTFKAYAMGWYRQAAGKEREFVPAITKRGGSTYYADSVKGRFTISRDNAKNTVYLQMNSLKPEDTAVYYCAVGLGRYTHTSVPIPSYDYWGQGTQVTVSS” was “high polyreactivity”; that for “QVQLVESGGGLVQAGGSLRLSCAASGRTFKDYAKGWYRHAPGKERELVARINGSGGSTYYADSVKGRFTISRDTAKNSVYLQMNSLKPEDTAVYYCGKDARRRTSILSGGRHYDYWGQGTQVTVSS” was “low polyreactivity”. The value for “QVQLVESGGGLVQAGGSLRLSCAASGRTFKDYAMGWDIQEPGKERELVAAISWSGGDTYYADSVKGRFTISRDNAKNTVYLQMNSLKPEDTAVYYCNADPSGVFFYSLEFDYWGQGTQVTVSS” was “low polyreactivity”; that for “QVQLVESGGGLVQAGGSLRLSCAASGRTFKFYAMGWYRQAPGKERELVARITSNSGSTYYADSVKGRFTISRDNAKHTVYLQLNSLKPEETAVYYCNARYGYTYRTFRYDYWGQGSQVTVSS” was “high polyreactivity”; that for “QVQLVESGGGLVQAGGSLRLSCAASGRTFKFYAMGWYRQAPGKERELVARITSNSGSTYYADTVKVRYTISRDNAKNTVYLQMNSLKPEDTAVYYCAARGRYRQFNYWGQGTQVTVSS” was “high polyreactivity”. As for “QVQLVESGGGLVQAGGSLRLSCAASGRTFKFYAMGWYRQAPGKERELVATISSRGGNTFYADSVKGRFTISRDNAKNTVYLQMNSLIPEDTAVYYCAARRGVRKYPSAGYEYWGQGTQVTVSS”, the “polyreactivity (PSR sort gate)” value is listed as “high polyreactivity”.

As to “QVQLVESGGGLVQAGGSLRLSCAASGRTFKKYAMGWYRQAPGKERELVAAITSSGGSTYYADSVKGRFTISRDNAKNTVYLQMNSLKPEDTAVYYCNTVYRHRQRAKYNYWGQGTQVTVSS”, the “polyreactivity (PSR sort gate)” value is recorded as “high polyreactivity”. The value for “QVQLVESGGGLVQAGGSLRLSCAASGRTFKKYAMGWYRQAPGKERELVAGITGSGGSTYYADSVKGRFTISRDNAKNTVYLQMNSLKPEDTAVYYCAAYAYGGWHSQDGGNYWGQGTQVTVSS” was “low polyreactivity”. The value for “QVQLVESGGGLVQAGGSLRLSCAASGRTFKKYAMGWYRQAPGKVREFVARITYSAGSTYYADSVKGRFTISRDNAKNTVYLQMNSLKPEDTAVYYCARRYASSGPRWYSRHGEYDYWGQGTQVTVSS” was “low polyreactivity”; that for “QVQLVESGGGLVQAGGSLRLSCAASGRTFKNYAMGWYRQAPGKERELVAAITSGGITNYADSVKGRFTISRDNAKNTVYLQMNSLKPEDTAVYYCNTRRGWRDFDYWGQGTQVTVSS” was “low polyreactivity”. The value for “QVQLVESGGGLVQAGGSLRLSCAASGRTFKPYAMGWYRQARGKERELVAAISTRGGSTYYADSVKGRFTISRDNAKNTVYLQMNSLKPEDTAVYYCAATQPGRDYDYWGQGTQVTVSS” was “low polyreactivity”; that for “QVQLVESGGGLVQAGGSLRLSCAASGRTFKRYAMGWYRQAPGKERELVAAITFSGGSTYYADSVKGRFTISRDNAKNTVYLQRNSLKPEDTAVYYCAADGEHYPWYYYWGQGTQVTVSS” was “high polyreactivity”. Turning to “QVQLVESGGGLVQAGGSLRLSCAASGRTFKRYAMGWYRQAPGKERELVAGISRGGNTNYADSVKGRFTISRDNAKNTVYLQMNSLNPEDTAVYYCNKDYSFEYSLRNRDYWGQGTQVTVSS”, the “polyreactivity (PSR sort gate)” value is reported as “low polyreactivity”.

Take “QVQLVESGGGLVQAGGSLRLSCAASGRTFKSNAMGWYRQAPGKERELVATINYSATSTYYADSVKGSFTISRDNAKNTVYLQMNSLKPEDTAVYYCNVACGYSYRGLDYWGQVTQVTVSS”: the “polyreactivity (PSR sort gate)” value was “high polyreactivity”. As for “QVQLVESGGGLVQAGGSLRLSCAASGRTFKTYAMAWYRQAPGKERELVAAISRDGRTYYADSVKGRFTISRDNAKNTVYLQMNSLKPEDTAVYYCNKRSYRNGDYWGQGTQVTVSS”, the “polyreactivity (PSR sort gate)” value is recorded as “low polyreactivity”.

With “QVQLVESGGGLVQAGGSLRLSCAASGRTFKTYTMGWYRQEPGKERELVAVISSGGGSTNYADSVKGRFTISRDKAKNTVNLQMNSRKPEDTAVYYCAARKPGRPKYRYDYWGQGSQVTVSS”, the “polyreactivity (PSR sort gate)” value is on record as “low polyreactivity”.

“QVQLVESGGGLVQAGGSLRLSCAASGRTFKWYAMGWYRQAPGKERELVAAITTGGNTYYADSVKGRFTISRDNAKNTVYLQMNSLTPEDTAVYYCARVPTQGYNPYEYWGQGTQVTVSS”: the “polyreactivity (PSR sort gate)” value is on record as “low polyreactivity”. For the sequence “QVQLVESGGGLVQAGGSLRLSCAASGRTFKWYAMGWYRQAPGKERELVAGISRGAGRTYYADSVKWRFTISRDNAKNTFYLEMNSLKPEDTAVYYFAASPVRDGKVIDGRDYWGQGTQVTVSS”, the “polyreactivity (PSR sort gate)” value was “high polyreactivity”. The value for “QVQLVESGGGLVQAGGSLRLSCAASGRTFKYNAMGWYRQAPGKERELVATITRSGGSTYADSVKGRFTISRDNAKNTVYLQMNSLKPEDTAVYYCNLFHVTKDYKTYPQSRYDYWGQGTQVTVSS” was “high polyreactivity”.

The values above are taken from the nanobody polyreactivity screen of Harvey et al. (2022).
